The numbers were not newly measured in patent US20220062372A1, “METHODS FOR TREATING DISEASE AND REDUCING DRUG-INDUCED LIVER INJURY IN PATIENT POPULATIONS” (Ten Peaks LLC, priority 2020, published 2022), which cites them from elsewhere.

The conditions of the data set: background description of the marketed drug.

B1: KEVZARA: IL-6 receptor antagonist (antibody, chains of the INN, looked up, V domains shown)
VH: EVQLVESGGGLVQPGRSLRLSCAASRFTFDDYAMHWVRQAPGKGLEWVSGISWNSGRIGYADSVKGRFTISRDNAENSLFLQMNGLRAEDTALYYCAKGRDSFDIWGQGTMVTVSS
VL: DIQMTQSPSSVSASVGDRVTITCRASQGISSWLAWYQQKPGKAPKLLIYGASSLESGVPSRFSGSGSGTDFTLTISSLQPEDFASYYCQQANSFPYTFGQGTKLEIK
As for B1, the “hepatic adverse reactions reported in patients” value is “associated with a higher incidence of transaminase elevations”.
